Biological target: integrin-αvβ1 (UniProt P06756 31-1048; P05556 21-798)
Assay: SPR

integrin-αvβ1, sequence (P06756 31-992, chain 1 of 2): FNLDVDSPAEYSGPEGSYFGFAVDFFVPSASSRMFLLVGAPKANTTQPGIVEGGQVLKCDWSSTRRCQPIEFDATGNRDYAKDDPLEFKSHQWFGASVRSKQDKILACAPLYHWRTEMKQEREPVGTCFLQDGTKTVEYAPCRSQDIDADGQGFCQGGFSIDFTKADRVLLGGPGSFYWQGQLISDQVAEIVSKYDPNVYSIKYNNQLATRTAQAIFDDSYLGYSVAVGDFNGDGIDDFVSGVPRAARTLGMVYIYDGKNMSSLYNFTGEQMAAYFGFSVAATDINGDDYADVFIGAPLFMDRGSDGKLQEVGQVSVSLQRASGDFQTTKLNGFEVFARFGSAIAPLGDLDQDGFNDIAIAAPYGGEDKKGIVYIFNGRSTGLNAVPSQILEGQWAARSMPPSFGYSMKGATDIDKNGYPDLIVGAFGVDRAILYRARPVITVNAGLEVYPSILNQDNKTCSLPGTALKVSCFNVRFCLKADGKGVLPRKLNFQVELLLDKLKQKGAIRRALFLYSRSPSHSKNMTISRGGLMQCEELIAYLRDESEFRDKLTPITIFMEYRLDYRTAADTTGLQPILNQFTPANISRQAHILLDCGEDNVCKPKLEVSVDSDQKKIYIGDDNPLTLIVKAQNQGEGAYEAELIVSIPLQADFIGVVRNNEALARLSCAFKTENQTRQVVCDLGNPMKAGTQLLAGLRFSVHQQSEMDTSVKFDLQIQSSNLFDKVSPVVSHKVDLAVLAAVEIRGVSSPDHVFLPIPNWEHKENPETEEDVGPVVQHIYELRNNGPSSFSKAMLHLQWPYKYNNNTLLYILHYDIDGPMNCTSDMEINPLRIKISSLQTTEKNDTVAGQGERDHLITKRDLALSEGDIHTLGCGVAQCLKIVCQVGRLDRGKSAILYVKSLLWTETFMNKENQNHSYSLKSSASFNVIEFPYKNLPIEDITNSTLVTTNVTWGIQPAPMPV
integrin-αvβ1, sequence (P05556 21-728, chain 2 of 2): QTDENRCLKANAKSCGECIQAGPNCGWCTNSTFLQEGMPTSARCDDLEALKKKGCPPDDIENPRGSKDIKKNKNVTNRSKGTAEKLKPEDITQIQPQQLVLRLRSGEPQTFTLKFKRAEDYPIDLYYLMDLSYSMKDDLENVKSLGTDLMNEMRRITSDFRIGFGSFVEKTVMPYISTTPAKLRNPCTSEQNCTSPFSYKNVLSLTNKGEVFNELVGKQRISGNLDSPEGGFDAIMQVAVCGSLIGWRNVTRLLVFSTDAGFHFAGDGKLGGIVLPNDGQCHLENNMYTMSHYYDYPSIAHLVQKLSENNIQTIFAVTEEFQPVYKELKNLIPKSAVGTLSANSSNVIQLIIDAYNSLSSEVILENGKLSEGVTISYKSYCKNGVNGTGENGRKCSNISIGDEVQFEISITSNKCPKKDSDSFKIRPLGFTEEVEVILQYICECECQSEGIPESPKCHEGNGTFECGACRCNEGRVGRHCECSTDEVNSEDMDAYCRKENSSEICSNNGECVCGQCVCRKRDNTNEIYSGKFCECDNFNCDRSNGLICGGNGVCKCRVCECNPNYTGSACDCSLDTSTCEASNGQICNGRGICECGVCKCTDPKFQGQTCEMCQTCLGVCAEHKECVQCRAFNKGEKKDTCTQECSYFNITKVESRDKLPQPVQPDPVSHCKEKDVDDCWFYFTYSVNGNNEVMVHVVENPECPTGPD

Kd: 43.6 nM
B1: SDC4_(87-131) (peptide)
peptide: NHIPERAGSGSQVPTEPKKLEENEVIPKRISPVEESEDVSNKVSM
modifications: The limits and source of the SPR ligand are not printed. The soluble ectodomain heterodimer is assumed by convention from the UniProt extracellular topology. Alpha-V may be cleaved into heavy and light chains joined by a disulfide. Amine-coupled to a CM5 chip.

— publication PMC12313019 (2025)
